Entries after “also recorded” stand apart in the source; their conditions may differ. Like-named read-outs stand apart in the source and are kept apart here.
What was measured:
[1] = Glucose levels during mouse ITT; format: in vivo
[2] = Glucose responsiveness in C57BL/6 mice with or without α-methylmannose; format: in vivo
Experimental: FIG. 40A, FIG. 40B, FIG. 40C, and FIG. 40D show in vivo activity of insulin B:P28N des(B30) analogues with an N-glycan attached to position B28. C57BL/6 mice at 12 weeks of age were fasted two hours before dosed with insulin des(B30) analogues with GS2.1 or GS5.0 N-glycan compositions by s.c injection. The effect on blood glucose was determined as a function of time in the absence and presence of α-methylmannose. FIG. 40A: vehicle; FIG. 40B: GS5.0; FIG. 40C: GS2.1; and FIG. 40D: summarizes the results.
To study the glucose responsiveness of the GS2.1 and GS5.0 insulin analogues, C57BL/6 mice at 12 weeks of age were fasted two hours before dosed with GS2.1 or GS5.0 by s.c injection. At the same time, animals received i.p. administration of α-methylmannose solution (21.5% w/v in saline, 10 ml/kg) or vehicle. […] Blood glucose was measured using a glucometer (OneTouch Ultra LifeScan; Milpitas, Calif.) at time 0 and then 30, 60, 90, and 120 minutes post injection. Glucose Area-Over-the-Curve (AOC) was calculated using values normalized to glucose of time 0 (as 100%).

[3] = mouse, in vivo
insulin receptor (IR) [4] = target: T1, insulin receptor (IR) (Homo sapiens, UniProt P06213); assay: In vitro insulin receptor binding (FIG. 5A)
Description: (§1) FIG. 5A, FIG. 5B, FIG. 5C, and FIG. 5D show[s] in vitro activities of the two N-glycosylated insulin analogues at the insulin and insulin-like growth factor (IGF-1) receptors.
(§2) N-glycans provide a means for modulating IR binding. […] The sialylated N-glycans extended the PK of the insulin relative to insulin analogues having non-sialylated N-glycans. However, the extended PK is balanced by the reduced binding at the IR. […] In light of the examples shown herein, modulating insulin-IR interactions can be accomplished by providing glycosylated insulin analogues in which one or more N-glycans have been added to the molecule by N-linked glycosylation in vivo or by attaching one or more of the N-glycans to the insulin molecule in vitro or a combination of both.

insulin receptor (IR) [5] = target: T1, insulin receptor (IR); assay: In vitro insulin receptor phosphorylation / IR signaling assay (FIG. 5C); format: cell-based
Description: as §1, §2

IGF-1R = IGF-1R (Homo sapiens, UniProt P08069); assay: IGF-1 receptor binding (FIG. 5B)
Description: as §1
Published studies have shown insulin to have a reduced interaction with IGF-1R when it contains a net negative charge at the end of the B-chain (Slieker et al., op. cit.). Therefore, we hypothesized that an N-glycosylated insulin analogue having sialic acid terminated-N-glycans would have reduced IGF-1R binding.

[6] = Circulating insulin analogue levels during insulin tolerance test (ITT); conditions: FIG. 3A/3B

| In vitro IR binding (insulin receptor (IR) [4]) | In vitro IR signaling activity (insulin receptor (IR) [5]) | Substance | In vivo glucose-lowering activity ([1]; FIG. 4) | Percent glucose AOC in the presence and absence of α-methylmannose ([2]; AOC normalized to glucose at time 0) | Blood glucose lowering, dosed alone ([2]; s.c., i.p. vehicle, 0-120 min, GS5.0 at 18 nmol/kg) | Blood glucose lowering in the presence of α-methylmannose ([2]; s.c., i.p. α-methylmannose 21.5% w/v, 10 ml/kg) | AUC of circulating insulin analogue levels [3] | In vivo glucose-lowering activity ([1]; FIG. 4, listed as sialic acid-terminated glycoform) | IGF-1R binding affinity (IGF-1R) | AUC of circulating insulin analogue levels [6] | AUC of circulating insulin analogue levels ([6]; listed as sialic acid-terminated glycoform) |
| --- | --- | --- | --- | --- | --- | --- | --- | --- | --- | --- | --- |
| – | – | GS5.0: insulin heterodimer, native A-chain, des(B30) B:P28N B-chain, Asn28 attached to a G2 N-glycan (SEQ ID NO:295) | retained activity at the insulin receptor | no change was detected | lowered glucose during 120 min study period | no detectable additional effect on glucose lowering | statistically significant improvements in AUC relative to mature NOVOLIN | – | – | – | – |
| reduced binding activity to IR | reduced activity | GS6.0: insulin heterodimer, native A-chain, des(B30) B:P28N B-chain, Asn28 attached to an A2 N-glycan (SEQ ID NO:294) | – | – | – | – | – | retained activity at the insulin receptor; also recorded: longest glucose-lowering activity of all des(B30) samples | interacts with IGF-1R with even less affinity than NOVOLIN | statistically significant improvements in AUC relative to mature NOVOLIN | even greater AUC measurements relative to the galactose-terminated glycoform |

From patent publication US20160289290A1, “N-GLYCOSYLATED INSULIN ANALOGUES” (Merck Sharp & Dohme Corp., priority 2011, published 2016)
